{"source": "paper PMC6224390", "target": "BG505 SOSIP trimer (HIV-1 (BG505)) (UniProt Q2N0S6)", "experiment": "SEC-MALS"}
{"substance": "BG505 SOSIP trimer (from UniProt Q2N0S6 1-860; Q2N0S6 1-860) (complex)", "values": [{"measurement": "stoichiometry N", "value": 3}]}
